Results published in IntAct's records for PubMed 19632993.

B1: Chromosomal replication initiator protein DnaA (Escherichia coli (strain K12)), P03004 (parent)
chain: MSLSLWQQCLARLQDELPATEFSMWIRPLQAELSDNTLALYAPNRFVLDWVRDKYLNNINGLLTSFCGADAPQLRFEVGTKPVTQTPQAAVTSNVAAPAQVAQTQPQRAAPSTRSGWDNVPAPAEPTYRSNVNVKHTFDNFVEGKSNQLARAAARQVADNPGGAYNPLFLYGGTGLGKTHLLHAVGNGIMARKPNAKVVYMHSERFVQDMVKALQNNAIEEFKRYYRSVDALLIDDIQFFANKERSQEEFFHTFNALLEGNQQIILTSDRYPKEINGVEDRLKSRFGWGLTVAIEPPELETRVAILMKKADENDIRLPGEVAFFIAKRLRSNVRELEGALNRVIANANFTGRAITIDFVREALRDLLALQEKLVTIDNIQKTVAEYYKIKVADLLSKRRSRSVARPRQMAMALAKELTNHSLPEIGDAFGGRDHTTVLHACRKIEQLREESHDIKEDFSNLIRTLSS
partner: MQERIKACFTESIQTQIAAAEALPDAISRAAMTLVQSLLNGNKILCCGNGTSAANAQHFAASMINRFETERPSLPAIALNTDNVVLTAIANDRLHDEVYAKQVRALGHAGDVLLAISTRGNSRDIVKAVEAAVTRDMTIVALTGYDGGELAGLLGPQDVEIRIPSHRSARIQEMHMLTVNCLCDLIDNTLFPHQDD

Variants of: B1
Conditions: with diaa_ecoli diaA

Variant | effect of a mutation on the interaction
MSLSLWQQCLARLQDELPATAFSMWIRPLQAELSDNTLALYAPNRFVLDWVRDKYLNNINGLLTSFCGADAPQLRFEVGTKPVTQTPQAAVTSNVAAPAQVAQTQPQRAAPSTRSGWDNVPAPAEPTYRSNVNVKHTFDNFVEGKSNQLARAAARQVADNPGGAYNPLFLYGGTGLGKTHLLHAVGNGIMARKPNAKVVYMHSERFVQDMVKALQNNAIEEFKRYYRSVDALLIDDIQFFANKERSQEEFFHTFNALLEGNQQIILTSDRYPKEINGVEDRLKSRFGWGLTVAIEPPELETRVAILMKKADENDIRLPGEVAFFIAKRLRSNVRELEGALNRVIANANFTGRAITIDFVREALRDLLALQEKLVTIDNIQKTVAEYYKIKVADLLSKRRSRSVARPRQMAMALAKELTNHSLPEIGDAFGGRDHTTVLHACRKIEQLREESHDIKEDFSNLIRTLSS [E21A] | decreasing interaction
MSLSLWQQCLARLQDELPATEFSMWIRPLQAELSDNTLALYAPNRAVLDWVRDKYLNNINGLLTSFCGADAPQLRFEVGTKPVTQTPQAAVTSNVAAPAQVAQTQPQRAAPSTRSGWDNVPAPAEPTYRSNVNVKHTFDNFVEGKSNQLARAAARQVADNPGGAYNPLFLYGGTGLGKTHLLHAVGNGIMARKPNAKVVYMHSERFVQDMVKALQNNAIEEFKRYYRSVDALLIDDIQFFANKERSQEEFFHTFNALLEGNQQIILTSDRYPKEINGVEDRLKSRFGWGLTVAIEPPELETRVAILMKKADENDIRLPGEVAFFIAKRLRSNVRELEGALNRVIANANFTGRAITIDFVREALRDLLALQEKLVTIDNIQKTVAEYYKIKVADLLSKRRSRSVARPRQMAMALAKELTNHSLPEIGDAFGGRDHTTVLHACRKIEQLREESHDIKEDFSNLIRTLSS [F46A] | disrupting interaction
